T1: hErbB3.mFc (soluble dimeric human ErbB3 extracellular domain fused to mouse Fc) (human)
T1 construct: called dimeric
T1 chain: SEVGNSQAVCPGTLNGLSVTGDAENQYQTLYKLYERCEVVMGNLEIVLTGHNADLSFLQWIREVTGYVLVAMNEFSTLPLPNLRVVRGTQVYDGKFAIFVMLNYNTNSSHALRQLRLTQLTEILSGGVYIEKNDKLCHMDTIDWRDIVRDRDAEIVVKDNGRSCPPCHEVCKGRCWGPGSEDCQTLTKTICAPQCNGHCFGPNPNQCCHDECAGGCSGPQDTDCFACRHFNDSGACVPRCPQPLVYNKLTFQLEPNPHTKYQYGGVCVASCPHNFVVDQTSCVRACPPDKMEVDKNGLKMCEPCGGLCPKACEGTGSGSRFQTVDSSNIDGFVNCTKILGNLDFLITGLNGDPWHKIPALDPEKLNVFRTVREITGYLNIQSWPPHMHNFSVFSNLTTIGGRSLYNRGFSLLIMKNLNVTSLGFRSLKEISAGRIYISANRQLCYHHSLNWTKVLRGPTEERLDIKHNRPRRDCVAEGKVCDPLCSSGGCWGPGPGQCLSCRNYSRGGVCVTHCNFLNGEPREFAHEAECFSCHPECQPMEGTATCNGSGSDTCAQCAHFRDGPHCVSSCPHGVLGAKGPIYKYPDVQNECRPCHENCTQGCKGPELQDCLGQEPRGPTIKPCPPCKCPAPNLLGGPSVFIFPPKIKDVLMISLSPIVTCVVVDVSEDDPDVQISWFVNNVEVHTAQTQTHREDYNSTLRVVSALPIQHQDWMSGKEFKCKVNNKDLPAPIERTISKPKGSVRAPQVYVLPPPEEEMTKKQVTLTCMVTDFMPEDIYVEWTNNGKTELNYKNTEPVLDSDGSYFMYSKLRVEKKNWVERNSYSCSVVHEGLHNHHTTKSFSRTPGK

T2: ErbB3-mFc (human)
T2 construct: Dimeric soluble ErbB3; also called hErbB3.mFc
T2 chain: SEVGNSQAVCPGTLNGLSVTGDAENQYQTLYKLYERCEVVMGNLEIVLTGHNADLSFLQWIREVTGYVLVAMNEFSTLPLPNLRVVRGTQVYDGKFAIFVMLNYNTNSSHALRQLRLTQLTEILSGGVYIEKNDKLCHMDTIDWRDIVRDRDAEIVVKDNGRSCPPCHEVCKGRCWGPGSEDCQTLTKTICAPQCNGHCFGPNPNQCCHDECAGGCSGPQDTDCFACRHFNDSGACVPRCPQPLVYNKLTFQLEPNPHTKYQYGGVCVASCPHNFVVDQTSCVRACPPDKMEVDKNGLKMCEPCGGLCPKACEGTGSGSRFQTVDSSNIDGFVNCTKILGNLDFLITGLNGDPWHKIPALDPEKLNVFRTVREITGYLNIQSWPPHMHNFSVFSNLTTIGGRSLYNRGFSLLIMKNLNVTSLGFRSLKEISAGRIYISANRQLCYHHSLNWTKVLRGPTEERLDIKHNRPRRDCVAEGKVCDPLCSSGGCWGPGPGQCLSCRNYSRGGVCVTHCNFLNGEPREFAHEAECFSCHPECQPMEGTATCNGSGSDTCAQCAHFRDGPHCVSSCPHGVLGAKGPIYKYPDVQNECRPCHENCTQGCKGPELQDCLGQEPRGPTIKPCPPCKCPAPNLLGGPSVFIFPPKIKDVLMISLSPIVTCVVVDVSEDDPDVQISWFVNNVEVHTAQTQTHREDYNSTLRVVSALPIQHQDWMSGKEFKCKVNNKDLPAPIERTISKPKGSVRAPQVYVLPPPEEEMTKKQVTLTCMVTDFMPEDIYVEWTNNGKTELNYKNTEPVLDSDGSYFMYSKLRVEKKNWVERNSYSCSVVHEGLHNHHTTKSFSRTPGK


What was measured:
[1] = target: hErbB3.mmh (soluble monomeric human ErbB3 extracellular domain with C-terminal myc-myc-hexahistidine tag) (human, UniProt P21860 20-642); test: SPR (Biacore), 25 C, mAb capture format
hErbB3.mmh (soluble monomeric human ErbB3 extracellular domain with C-terminal myc-myc-hexahistidine tag), sequence (P21860 other isoform, or with tags, fused parts or gaps): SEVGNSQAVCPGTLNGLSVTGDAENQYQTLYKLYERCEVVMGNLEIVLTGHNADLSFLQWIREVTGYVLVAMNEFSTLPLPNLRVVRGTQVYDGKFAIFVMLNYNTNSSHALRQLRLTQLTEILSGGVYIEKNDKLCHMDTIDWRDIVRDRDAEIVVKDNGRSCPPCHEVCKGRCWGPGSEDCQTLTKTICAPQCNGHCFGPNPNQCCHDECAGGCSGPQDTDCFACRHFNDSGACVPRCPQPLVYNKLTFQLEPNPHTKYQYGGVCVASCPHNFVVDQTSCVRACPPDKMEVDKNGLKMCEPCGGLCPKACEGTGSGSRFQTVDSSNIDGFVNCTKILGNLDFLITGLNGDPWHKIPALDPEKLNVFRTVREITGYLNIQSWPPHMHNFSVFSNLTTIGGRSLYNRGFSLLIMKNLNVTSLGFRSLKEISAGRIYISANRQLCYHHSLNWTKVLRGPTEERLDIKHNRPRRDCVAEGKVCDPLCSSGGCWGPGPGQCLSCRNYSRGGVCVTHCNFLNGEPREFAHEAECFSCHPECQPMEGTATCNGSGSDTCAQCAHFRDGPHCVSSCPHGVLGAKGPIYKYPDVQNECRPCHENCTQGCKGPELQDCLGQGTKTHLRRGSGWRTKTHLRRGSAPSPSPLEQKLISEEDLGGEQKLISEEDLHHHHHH
Method: (§1) (Tables 2-4). Measurements were conducted on a Biacore 2000 or T100 instrument. […] Kinetic association (kₐ) and dissociation (kd) rate constants were determined by processing and fitting the data to a 1:1 binding model using Scrubber 2.0 curve fitting software.

[2] = target: T1, hErbB3.mFc (soluble dimeric human ErbB3 …); test: SPR (Biacore), 25 C, mAb capture format
Method: as §1

ErbB3-mFc = target: T2, ErbB3-mFc; test: blocking ELISA: antibody (0-50 nM) + 50 pM ErbB3-mFc, binding to coated neuregulin1b
Excerpt: To further characterize anti-hErbB3 mAbs of the present invention, their ability to block ligand binding was examined via ELISA. […] Plates were washed and non-sequestered (plate bound) ErbB3 was detected with an anti-Fc poly conjugated with horseradish peroxidase (HRP). Plates were developed with TMB (3,3′,5,5′-tetramethylbenzidine) and neutralized with sulfuric acid before reading absorbance at 450 nm on a Victor X5 plate reader. Data analysis used a sigmoidal dose-response model within Prism™ software. […] Maximal blocking for each antibody was calculated by taking the difference in absorbance from zero to 50 nM antibody on the inhibition curve, divided by the difference in absorbance from 50 pM to zero ErbB3 on the dose curve.

Binder	Kd [1] [nM]	T½ [1] [h]	koff [1] [s⁻¹]	kon [1] [M⁻¹ s⁻¹]	Kd [2] [nM]	T½ [2] [h]	koff [2] [s⁻¹]	kon [2] [M⁻¹ s⁻¹]	IC50 (ErbB3-mFc) [nM]	Maximal Blocking (%) (ErbB3-mFc)
H4H2148P (antibody, V domains shown, Fully human, human IgG4 Fc (H4H prefix)) VH: EVQLVESGGGLVHPGRSLRLSCAASGFTFDDYAMHWVRQSPGKGLEWVSGISWNSVIKHSTDSVRGRFTISRDNAKNSLYLQMNSLKPEDTAFYYCAKDEDDWNYLDYWGQGTLVTVSS VL: DIQMTQSPSSVSASVGDRVTITCRASQDINSWLAWYQQKPGKAPKLLIYTSSNLQSGVPSRFSGSGSGTDFTLTISSLQPEDFATYYCQQSDSFPFTFGPGTKVDIKR	0.00871	5.12	3.47e-05	3.98e+06	0.000295	102	1.74e-06	5.91e+06		
H4H2108P (antibody, human IgG4, V domains shown, Human IgG4 Fc (prefix H4H)) VH: EVQLLESGGDLVQPGGSLRLSCATSGFSFSSDAMNWVRQAPGKGLEWVSGISGSGGNTYYADSVKGRFTISRDISKSTLSLQMNSLRAEDTAVYYCAKEGTNMVRGVVMEDNGMDVWGQGTTVTVSA VL: DIQMTQSPSSVSASVGDRVTITCRASQGISDYLAWYQQKPGKAPKLLIYAASSLQSGVPSRFSGRGSGTDFTLTISTLQPEDFATYYCQQANSFPLTFGGGTKVDIKR									0.116	91
H4H2094P (antibody, human IgG4, V domains shown, Human IgG4 Fc (prefix H4H)) VH: EVQLVESGGGLVQPGGSLRLSCAASGFTFSSYDMHWVRQATGKGLEWVSAIGPAGDTYYPVSAMGRFTISRDDAKNSLYLQMNSLRAGDTAVYYCAREGVTIRPDDYFGLDVWGQGTTVTVSA VL: DIQLTQSPSFLSASVGDRVTITCWASQGISDYLAWYQKKPGKAPQLLIYAATTLQSGVPSRFSGSGSGTEFTLTISSLQPEDFATYYCQQLNTYPLTFGGGTKVEIKR									0.09	92
H4H2102P (antibody, human IgG4, V domains shown, Human IgG4 Fc (prefix H4H)) VH: EVQLVESGGGLVQPGGSLRLSCAASGFTFSNYDIHWVRQATGKGLEWVSAIGPAGDTYYSDSVKGRFTISREDAKNSLYLQMSSLRAGDTAVYYCASEGIAVRPDDYYGMDVWGQGTTVTVSA VL: DIQLTQSPSFLSASVGDRVTITCWASQDITSYLAWYQKKPGKAPKLLIYAASTLQSGVPSRFSGSGSGTEFTLTISSLQPEDFAAYYCQQLNSYPLTFGGGTKVDIKR									0.186	90

Continued, values first:

Kd [1] [nM]	T½ [1] [h]	koff [1] [s⁻¹]	kon [1] [M⁻¹ s⁻¹]	Kd [2] [nM]	T½ [2] [h]	koff [2] [s⁻¹]	kon [2] [M⁻¹ s⁻¹]	IC50 (ErbB3-mFc) [nM]	Maximal Blocking (%) (ErbB3-mFc)	Binder
0.0176	4.75	3.73e-05	2.13e+06	0.0003	182	9.77e-07	3.25e+06			H4H2154P (antibody, V domains shown, Fully human, human IgG4 Fc (H4H prefix)) VH: QVQLQESGPGLINPSQTLSVTCTVSGGSISSGGYYWTWIRQHPGKGLEWIGYISYSGNTNYNPSLKSRVTISVDTAKNQFSLKLSSVTAADTAVYFCARDSDVDTAMVDGIDIWGQGTMVTVSS VL: DIQMTQSPSSVSASVGDRVTITCRASQDISSWLAWYQQKPGRAPKLLIYTASSLQSGVPSRFSGSGSGTDFTLTISSLQPEDFATYFCQQANSFPFTFGPGTKVDIKR
								0.0594	100	H4H2092P (antibody, human IgG4, V domains shown, Human IgG4 Fc (prefix H4H)) VH: EVQLVESGGGVVRPGGSLRLSCAASGFTFEDYGMNWVRQVPGKGLEWVSGTNWNGGITGYTGSVKGRFTISRDNAKNSLYLQMNSLRAEDTALYHCARDSGDQDAFDIWGQGTMVTVSS VL: DIQLTQSPSFLSASVGDRVTITCWASQDISSYLAWYQQKPGKAPKLLIYAASTFQSGVPSRFSGSGSGTEFTLTISNLQPEDFATYYCQQLDSYPLSFGGGTKVEIKR
								0.0497	92	H4H2111P (antibody, human IgG4, V domains shown, Human IgG4 Fc (prefix H4H)) VH: QVQLVESGGGVVQPGRSLRLSCAASGFTFNNYGMHWVRQAPGKGLAWVAVMWYSESHKYYADSVKGRFTISRDNSKNTLYLEMNSLRVEDTAIYYCARDLGDPDAFDIWGQGTMVTVSS VL: DIQLTQSPSFLSASVGDRVTITCWASQGISSYLAWYQQKPGKAPKLLIYGASTLQSGVPSRFSGSGSGTEFTLTISSLQPEDFATYYCQQLNSYPLTFGGGTKVEIKR
